Drawing on the supplement of paper PMC10724198, this text covers protein stability index for 67 sequences.

The series concerns Saccharomyces cerevisiae. Description: protein stability index of tFT-peptide fusion (C-terminal peptide) (PSI (0-1 scale)); higher = more stable (slower turnover). The note with it: temperature: 30 C. The procedure:
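MPS profiling in S. cerevisiae of the yeast C-terminome library: the last 12 aa of each annotated ORF are fused to the C-terminus of a sfGFP-mCherry timer, after a GGGS linker. Cells are FACS-sorted into 8 mCherry/sfGFP bins and deep-sequenced. PSI runs from 0 (unstable) to 1 (stable); wild type and das1Δ backgrounds, two technical replicates each.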

Where [1] appears, read: genetic background: das1 deletion.

± gives the standard deviation of the averaged measurements.

ESAKQRRDKQKN [ATG38 C-terminal 12 aa]: the protein stability index was found to be 0.7096 ± 0.003 under setting [1] and 0.686 ± 0.02 (genetic background: wild type).
Taken in the same sequence, the figures for ESLQKNIKIETK [MUM3 C-terminal 12 aa] were 0.6981 ± 0.005 and 0.671 ± 0.051.
Taken in the same sequence, the figures for ESVSYLFTHAPV [PRS2 C-terminal 12 aa] were 0.734 ± 0.0093 and 0.711 ± 0.023.
As for ESYRDDSIEAED [NCR1 C-terminal 12 aa], the protein stability index came out at 0.6933 ± 0.001 under setting [1] and 0.7157 ± 0.0012 (genetic background: wild type).
Taken in the same sequence, the figures for “ETIAEEMDSVHT [YAL064W-B C-terminal 12 aa]” were 0.682 ± 0.012 and 0.662 ± 0.018.
Taken in the same sequence, the figures for ETNFWTAALEYE [THI20 C-terminal 12 aa] were 0.723 ± 0.011 and 0.759 ± 0.034.
Consider ETVGYEAYLENK [ADE2 C-terminal 12 aa], for which the protein stability index was found to be 0.685 ± 0.014 under setting [1] and 0.661 ± 0.013 (genetic background: wild type).
Taken in the same sequence, the figures for EVDIDSLLAKLN [RLP7 C-terminal 12 aa] were 0.7114 ± 0.0065 and 0.407 ± 0.023.
As to EVLEVAEKFKEE [DOT5 C-terminal 12 aa], the protein stability index is, setting by setting: under setting [1], 0.696 ± 0.011; (genetic background: wild type) 0.683 ± 0.018.
For the sequence EYHQEFLHKHVR [CWC15 C-terminal 12 aa], the protein stability index reads like this: under setting [1], 0.726 ± 0.035; (genetic background: wild type) 0.662 ± 0.015.
Consider EYPWEKPKTLKF [SAM1 C-terminal 12 aa], for which the protein stability index is 0.7167 ± 0.00082 under setting [1] and 0.6917 ± 0.0068 (genetic background: wild type).
Taken in the same sequence, the figures for FADTRPFDEIYR [ATP23 C-terminal 12 aa] were 0.73 ± 0.00073 and 0.727 ± 0.063.
Taken in the same sequence, the figures for FAFVVVKQEFIH [BYE1 C-terminal 12 aa] were 0.521 ± 0.015 and 0.519 ± 0.0072.
Taken in the same sequence, the figures for FASGKPIKKVKN [DYS1 C-terminal 12 aa] were 0.698 ± 0.0083 and 0.706 ± 0.016.
In the case of “FCKEKVYSKLLV [YNL103W-A C-terminal 12 aa]”, the protein stability index under setting [1] worked out at 0.648 ± 0.015 and the protein stability index (genetic background: wild type) is 0.559 ± 0.0084.
Taken in the same sequence, the figures for FDTLIVHHFSSE [KHA1 C-terminal 12 aa] were 0.733 ± 0.01 and 0.682 ± 0.021.
Taken in the same sequence, the figures for FEVMKFVNGLKV [RFX1 C-terminal 12 aa] were 0.5484 ± 0.0045 and 0.5872 ± 0.0047.
Taken in the same sequence, the figures for FEWEDDESDEIA [ATG7 C-terminal 12 aa] were 0.7397 ± 0.004 and 0.706 ± 0.035.
Take FFRLGWSTWLHY [YOR029W C-terminal 12 aa]: the protein stability index reads like this: under setting [1], 0.502 ± 0.01; (genetic background: wild type) 0.351 ± 0.0046.
As to “FFRQWWDIIQSK [YMR316C-A C-terminal 12 aa]”, the protein stability index came to 0.7 ± 0.025 under setting [1] and 0.671 ± 0.012 (genetic background: wild type).
FGDNSKHKTDKI [BOI2 C-terminal 12 aa]: the protein stability index came to 0.712 ± 0.042 under setting [1] and 0.685 ± 0.019 (genetic background: wild type).
Taken in the same sequence, the figures for FIENVLKKRNMK [LIP5 C-terminal 12 aa] were 0.7195 ± 0.0041 and 0.7 ± 0.041.
Turning to FIFYSILPTNVI [YPR123C C-terminal 12 aa], the protein stability index is, setting by setting: under setting [1], 0.594 ± 0.013; (genetic background: wild type) 0.645 ± 0.029.
With FIKKWAHYYKKF [SBE22 C-terminal 12 aa], the protein stability index came to 0.711 ± 0.026 under setting [1] and 0.236 ± 0.0037 (genetic background: wild type).
As for FKGFLENIDSYT [AIM22 C-terminal 12 aa], the protein stability index by setting is: under setting [1], 0.714 ± 0.021; (genetic background: wild type) 0.706 ± 0.0014.
With FKLHNETRCRNR [VPS71 C-terminal 12 aa], the protein stability index reads like this: under setting [1], 0.68 ± 0.017; (genetic background: wild type) 0.677 ± 0.007.
On to FKVASIANAQVR [ARC1 C-terminal 12 aa], for which the protein stability index was 0.689 ± 0.0093 under setting [1] and 0.696 ± 0.027 (genetic background: wild type).
Taken in the same sequence, the figures for FLFSCMLYKIDP [YML089C C-terminal 12 aa] were 0.669 ± 0.027 and 0.664 ± 0.034.
Taken in the same sequence, the figures for FLILVFVMKKNH [YDR018C C-terminal 12 aa] were 0.287 ± 0.0071 and 0.269 ± 0.017.
Taken in the same sequence, the figures for FLKNFTNDTFDN [BCH1 C-terminal 12 aa] were 0.7055 ± 0.0035 and 0.7462 ± 0.0044.
Take FPEKNIVNLKSA [CHA1 C-terminal 12 aa]: the protein stability index is, setting by setting: under setting [1], 0.6971 ± 0.0067; (genetic background: wild type) 0.1495 ± 0.0011.
Consider “FPVTLWSKVILK [YHR073W-A C-terminal 12 aa]”, for which the protein stability index is, setting by setting: under setting [1], 0.569 ± 0.0092; (genetic background: wild type) 0.559 ± 0.026.
Taken in the same sequence, the figures for FRHNRSNKKLGC [GEX1 C-terminal 12 aa] were 0.725 ± 0.025 and 0.7365 ± 0.0018.
Taken in the same sequence, the figures for FRPDEMNIVTKF [PRM15 C-terminal 12 aa] were 0.68 ± 0.022 and 0.753 ± 0.024.
Taken in the same sequence, the figures for FRTDEVYAAWRD [KAE1 C-terminal 12 aa] were 0.6891 ± 0.0051 and 0.6814 ± 0.0024.
As for FSIRSISKFIFT [YOR325W C-terminal 12 aa], the protein stability index reads like this: under setting [1], 0.649 ± 0.014; (genetic background: wild type) 0.665 ± 0.051.
Turning to FSNLLWFDQNFA [STB4 C-terminal 12 aa], the protein stability index came out at 0.742 ± 0.014 under setting [1] and 0.786 ± 0.079 (genetic background: wild type).
Turning to FSTEYLGLICTY [YLR232W C-terminal 12 aa], the protein stability index by setting is: under setting [1], 0.49388 ± 0.0004; (genetic background: wild type) 0.5496 ± 0.0009.
Take FTMSLAHCLMFS [YJL169W C-terminal 12 aa]: the protein stability index is, setting by setting: under setting [1], 0.636 ± 0.016; (genetic background: wild type) 0.668 ± 0.066.
Taken in the same sequence, the figures for “FVAYTTLTFKKT [YMR001C-A C-terminal 12 aa]” were 0.6649 ± 0.0001 and 0.67 ± 0.037.
As to FVEGGDGKYVLN [YPL113C C-terminal 12 aa], the protein stability index was determined as 0.688 ± 0.016 under setting [1] and 0.676 ± 0.014 (genetic background: wild type).
Taken in the same sequence, the figures for FVKDEIHKDILD [PEX21 C-terminal 12 aa] were 0.7 ± 0.017 and 0.685 ± 0.011.
FVKVIDYTSNGW [PBY1 C-terminal 12 aa]: the protein stability index is, setting by setting: under setting [1], 0.676 ± 0.0086; (genetic background: wild type) 0.685 ± 0.015.
As to “FVLSISFRQEQT [YER172C-A C-terminal 12 aa]”, the protein stability index is 0.577 ± 0.042 under setting [1] and 0.591 ± 0.025 (genetic background: wild type).
On to FYSLCEKGGYLK [BPT1 C-terminal 12 aa], for which the protein stability index by setting is: under setting [1], 0.679 ± 0.014; (genetic background: wild type) 0.66733 ± 0.00062.
Taken in the same sequence, the figures for FYSVFALMVIFV [YIP1 C-terminal 12 aa] were 0.178 ± 0.013 and 0.122 ± 0.003.
Consider GAAVGGALAFLI [DDR2 C-terminal 12 aa], for which the protein stability index by setting is: under setting [1], 0.702 ± 0.02; (genetic background: wild type) 0.677 ± 0.0076.
Taken in the same sequence, the figures for GAIMGAAAFALL [TOS6 C-terminal 12 aa] were 0.699 ± 0.013 and 0.729 ± 0.053.
Taken in the same sequence, the figures for GAQPHLYIPDED [USA1 C-terminal 12 aa] were 0.6896 ± 0.0026 and 0.6982 ± 0.003.
For the sequence GCSLQISYARRD [GBP2 C-terminal 12 aa], the protein stability index is, setting by setting: under setting [1], 0.706 ± 0.018; (genetic background: wild type) 0.6525 ± 0.0037.
On to GCVKMYKFDLND [MET30 C-terminal 12 aa], for which the protein stability index amounted to 0.713 ± 0.044 under setting [1] and 0.7322 ± 0.0023 (genetic background: wild type).
Take GDLLSLKGEIMQ [ALK2 C-terminal 12 aa]: the protein stability index runs as follows: under setting [1], 0.689 ± 0.022; (genetic background: wild type) 0.691 ± 0.029.
Regarding GDVSNLPYLDEL [QCR2 C-terminal 12 aa], the protein stability index amounted to 0.694 ± 0.013 under setting [1] and 0.722 ± 0.039 (genetic background: wild type).
Consider GDYTVKQPEATK [AIM9 C-terminal 12 aa], for which the protein stability index amounted to 0.703 ± 0.013 under setting [1] and 0.672 ± 0.029 (genetic background: wild type).
Taken in the same sequence, the figures for GEDPYMDLMKEF [TPK3 C-terminal 12 aa] were 0.745 ± 0.013 and 0.733 ± 0.036.
As to GEDTGPTVEEVD [SSA3 C-terminal 12 aa], the protein stability index runs as follows: under setting [1], 0.682 ± 0.013; (genetic background: wild type) 0.684 ± 0.015.
Regarding GGGVLQLISYIL [YSY6 C-terminal 12 aa], the protein stability index runs as follows: under setting [1], 0.706 ± 0.0057; (genetic background: wild type) 0.656 ± 0.015.
Taken in the same sequence, the figures for GGKDKMVRLWTH [RSA4 C-terminal 12 aa] were 0.691 ± 0.011 and 0.698 ± 0.0076.
On to GGPFPYYFNTFC [YKL169C C-terminal 12 aa], for which the protein stability index was determined as 0.704 ± 0.028 under setting [1] and 0.53 ± 0.027 (genetic background: wild type).
Taken in the same sequence, the figures for GHSHKHKGHQKK [KRI1 C-terminal 12 aa] were 0.673 ± 0.008 and 0.667 ± 0.018.
As to GIHPPEPIAAAA [KTI11 C-terminal 12 aa], the protein stability index was determined as 0.3 ± 0.031 under setting [1] and 0.357 ± 0.017 (genetic background: wild type).
Taken in the same sequence, the figures for GKNQWFFSKLRF [RPL27A C-terminal 12 aa] were 0.707 ± 0.0096 and 0.683 ± 0.013.
Consider GLKQKSTIVTVD [CDC5 C-terminal 12 aa], for which the protein stability index reads like this: under setting [1], 0.6917 ± 0.0015; (genetic background: wild type) 0.717 ± 0.078.
The sequence GLLVVFDRIDVK [MET7 C-terminal 12 aa] yielded a protein stability index under setting [1] of 0.667 ± 0.015 and a protein stability index (genetic background: wild type) of 0.634 ± 0.013.
With GLTLIGRQSDSI [RAD7 C-terminal 12 aa], the protein stability index is, setting by setting: under setting [1], 0.7025 ± 0.0011; (genetic background: wild type) 0.71 ± 0.074.
In turn, GMYSRAYETHTL [ERG7 C-terminal 12 aa] returned a protein stability index under setting [1] of 0.7 ± 0.012 and a protein stability index (genetic background: wild type) of 0.696 ± 0.022.
As for GNAEFAASLLFQ [DDI1 C-terminal 12 aa], the protein stability index is, setting by setting: under setting [1], 0.7205 ± 0.0066; (genetic background: wild type) 0.7022 ± 0.0025.
